Columns and labels:
human GITR-Fc [1] = target: T1, human GITR-Fc (human, UniProt Q9Y5U5 26-162, conjugated with europium cryptate in the HTRF assays); experiment: HTRF competition; competitor GITRL-HA on GITR-Fc
T1 construct: also called hGITR-Fc; hGITRFc; not shown: Fc domain of hIgG1
T1 sequence: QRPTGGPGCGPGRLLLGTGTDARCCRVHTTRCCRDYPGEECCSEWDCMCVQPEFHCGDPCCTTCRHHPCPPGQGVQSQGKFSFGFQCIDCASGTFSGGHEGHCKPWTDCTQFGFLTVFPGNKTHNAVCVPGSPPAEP
Experimental: The effect of the hexameric GITRL FP molecules on human GITRL binding to human GITR was determined using a Homogeneous Time Resolved Fluorescence (HTRF) assay.
(§1) The hexameric GITRL FP molecules were titrated into an HTRF assay in which binding of GITRL-HA (hemagglutinin tag) to GITR-Fc was measured. The human GITR Fc was conjugated with europium cryptate and an anti-HA antibody conjugated with XL665 was used to detect the GITRL-HA protein. IC₅₀ values were determined by curve fitting the analyzed data to a four parameter logistic equation with Prism 5.01 software (GraphPad).

human GITR-Fc [2] = target: T1, human GITR-Fc; experiment: HTRF competition; competitor GITRL-HA on GITR-Fc; remark: listed apart in the source
Experimental: as §1
The effect of a hexameric GITRL IgG1 FP having the monomeric GITRL IgG1 FP subunit sequence of SEQ ID NO: 6 on human GITRL binding to human GITR was determined using a Homogeneous Time Resolved Fluorescence (HTRF) assay. The GITRL IgG1 FP was titrated into an HTRF assay in which binding of GITRL-HA (hemagglutinin tag) to GITR-Fc was measured. The human GITR-Fc was conjugated with europium cryptate and an anti-HA antibody conjugated with XL665 was used to detect the GITRL-HA protein. IC₅₀ values were determined by curve fitting the analyzed data to a four parameter logistic equation with Prism 6.0x software (GraphPad).

[3] = target: T2, human GITR expressed on cells (human, UniProt Q9Y5U5 26-241); experiment: cell-based or functional assay
T2 sequence: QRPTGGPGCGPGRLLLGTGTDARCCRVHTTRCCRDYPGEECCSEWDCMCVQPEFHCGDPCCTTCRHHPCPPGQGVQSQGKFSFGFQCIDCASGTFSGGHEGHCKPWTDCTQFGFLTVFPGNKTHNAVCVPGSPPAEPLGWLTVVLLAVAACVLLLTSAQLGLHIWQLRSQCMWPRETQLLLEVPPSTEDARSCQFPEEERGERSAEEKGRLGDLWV

IC50 (human GITR-Fc [1]): 8.05 nM
fold lower potency than GITRL FP (GCN4) (human GITR-Fc [2]): 8 fold
EC50 (nM), human GITR transfected NF-κB luciferase gene reporter cell line [3]: 1.54 nM
B1: hexameric GITRL FP (Langerin wt) (Fc fusion, not shown: a dimerising Fc or GST; small tags and cut ends)
chain (part 1 of 2): ASALNTKIRALQGSLENMSKLLKRQNDILQVVS
chain (part 2 of 2): LQLETAKEPCMAKFGPLPSKWQMASSEPPCVNKVSDWKLEILQNGLYLIYGQVAPNANYNDVAPFEVRLYKNKDMIQTLTNKSKIQNVGGTYELHVGDTIDLIFNSEHQVLKNNTYWGIILLANPQFIS
